± gives the uncertainty stated by the source.
Experiment: amyloid nucleation score (Sup35N fusion, yeast selection) (log enrichment); library NNK3; higher = more nucleation; inactive = no reads after selection
Method in brief: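 For the nucleation score, DiMSum gave the log enrichment of output over input reads, centred on the mode score of non-aggregating sequences. Psi-negative yeast expressing Sup35N fused to peptides of 20 random codons were induced with 100 μM copper sulfate for 24 hours and grown 7 days at 30°C on medium lacking adenine and uracil. Input and output plasmid inserts were Illumina-sequenced, and sequences with under 100 input reads were excluded.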
With GMYGMSGMV the amyloid nucleation score was “inactive”. In the case of GNALSIEVDGSIK, the amyloid nucleation score is reported as “inactive”. For GNFAM, the amyloid nucleation score was “inactive”. In the case of GNFKCELVSALSDNIICPYM, the amyloid nucleation score is reported as “inactive”. Substance GNIAYSVLMWSDCKTCQCDV has an amyloid nucleation score of 1.82 ± 0.058. GNKQVVNWDGYF showed an amyloid nucleation score of -0.431 ± 0.96. For GNLSFTPGITRKKSVLEYRH, the amyloid nucleation score was “inactive”. In the case of GNMLSPI, the amyloid nucleation score is reported as “inactive”. For GNSHLSCERSCNIKMCMSGG, the amyloid nucleation score was “inactive”. With GNSIALSE the amyloid nucleation score was “inactive”. In the case of GNSSII, the amyloid nucleation score is reported as “inactive”. In the case of GNWTQ, the amyloid nucleation score is reported as “inactive”. In the case of GNYRLSLHVVL, the amyloid nucleation score is reported as 1.21 ± 0.18. With GNYVRIETS the amyloid nucleation score was “inactive”. GPIEPFSMLSM showed an amyloid nucleation score of -0.291 ± 0.7. In the case of GPPAEASHKLWPASPRDRCP, the amyloid nucleation score is reported as “inactive”. With GPPLNYEVT the amyloid nucleation score was “inactive”. In the case of GQFML, the amyloid nucleation score is reported as “inactive”. With GQWLYGWTRYVGPTI the amyloid nucleation score was “inactive”. In the case of GRANGFQQIDLCEYHREYLN, the amyloid nucleation score is reported as “inactive”. For GRCNLGSMNNWFKLPLKSVR, the amyloid nucleation score was “inactive”. With GRCVEVCLIWLTKGDQQCSY the amyloid nucleation score was “inactive”. With GREAGVIIWVRCLYFYVFER the amyloid nucleation score was “inactive”. For GRFASYMYCILQQHSLFYWV, the amyloid nucleation score was “inactive”. In the case of GRFRLMNLFQTDSRINLWVR, the amyloid nucleation score is reported as “inactive”. With GRLSVFLGYIHGRCYGALGR the amyloid nucleation score was -0.635 ± 1.9. For GRVESSVIYRPLNLGGGQES, the amyloid nucleation score was “inactive”. In the case of GSASHDPTACCFYGFV, the amyloid nucleation score is reported as “inactive”. In the case of GSATVMIWQR, the amyloid nucleation score is reported as “inactive”. In the case of GSDSVAGHYFSFVYKVIAEF, the amyloid nucleation score is reported as 0.292 ± 0.3. For GSFSMKDTVEVYLTPVWFSR, the amyloid nucleation score was “inactive”. With GSGIINDMGFRWIFFMWVMA the amyloid nucleation score was “inactive”. With GSICYHGWTFKGKVKILNGI the amyloid nucleation score was “inactive”. With GSKESPKRYSSSALASVGVI the amyloid nucleation score was “inactive”. With GSLKPMFDRSCFFNIKAIML the amyloid nucleation score was “inactive”. In the case of GSLPFLSYLGRVKCGERRSS, the amyloid nucleation score is reported as “inactive”. For GSNFICTFRVGKGYRPVCLE, the amyloid nucleation score was “inactive”. In the case of GSNRQTVRFNWS, the amyloid nucleation score is reported as “inactive”. With GSRLSIQTFMTS the amyloid nucleation score was “inactive”. In the case of GSSKCRRLCGRVRQYSYWNR, the amyloid nucleation score is reported as “inactive”. For GSSSCY, the amyloid nucleation score was “inactive”. With GSVFGKVGTVKSEMPRGSSN the amyloid nucleation score was “inactive”. For GSVGSRADVFLGCGDEWRQA, the amyloid nucleation score was “inactive”. In the case of GSWSVRLPLIWTKY, the amyloid nucleation score is reported as “inactive”. With GTAIIEGTM the amyloid nucleation score was “inactive”. For GTGMCCLIVSLVFLPLCDIA, the amyloid nucleation score was “inactive”. With GTIHFHGGNHCSLGLL the amyloid nucleation score was “inactive”. In the case of GTLDNDRVIVWSDLDFSCFR, the amyloid nucleation score is reported as “inactive”. With GTSIYSYRYLRYFSMFNM the amyloid nucleation score was “inactive”. In the case of GTWNVKAGGPYFKVVT, the amyloid nucleation score is reported as “inactive”. For GVADGGMPRNSSWRLSGVVR, the amyloid nucleation score was “inactive”. For GVCKWFCESIDMTLRAVWAN, the amyloid nucleation score was “inactive”. In the case of GVCSLCKTLR, the amyloid nucleation score is reported as “inactive”. With GVFAIGANLQANVGNDRAYT the amyloid nucleation score was “inactive”. For GVGGPDGCTGNDTFMRQYTN, the amyloid nucleation score was “inactive”. With GVGVMLSYKGIFMHLSFVGE the amyloid nucleation score was “inactive”. With GVHWETDEGNVVRL the amyloid nucleation score was “inactive”. Substance GVIFEISVSCVQTFCPFHYL has an amyloid nucleation score of 1.21 ± 0.093. Substance GVIILSLTAKCQAMDSVRTL has an amyloid nucleation score of 0.841 ± 0.14. With GVLCMFGSTWRMFMEVGLHV the amyloid nucleation score was “inactive”. With GVLMNHIELL the amyloid nucleation score was “inactive”. In the case of GVLSYNMIHT, the amyloid nucleation score is reported as “inactive”. With GVLYDGVGDNHCCGSRKLVL the amyloid nucleation score was “inactive”. For GVRHRLAVFQYMFTHVLWTM, the amyloid nucleation score was “inactive”. In the case of GVRLAWVTSCCRV, the amyloid nucleation score is reported as “inactive”. For GVTLTTLDSLSDFGWLIE, the amyloid nucleation score was “inactive”. Work on GVVVWYSGDWTECMVVNRCD yielded an amyloid nucleation score of 0.78 ± 0.12. With GWFMCVSTAWGVYNAYIPMQ the amyloid nucleation score was “inactive”. With GWFRSQSMPIALEYLTGPGS the amyloid nucleation score was “inactive”. Substance GWGPRPSKNVCHIRCDMFFM has an amyloid nucleation score of 1.59 ± 0.13. In the case of GWGVHWFYIMVINHLF, the amyloid nucleation score is reported as “inactive”. With GWNLGMAHSRRYGPVNISAW the amyloid nucleation score was “inactive”. In the case of GWNLTHRMSTGSKLLCPLRI, the amyloid nucleation score is reported as “inactive”. In the case of GWRRPNSYDLEAEFMRKSGG, the amyloid nucleation score is reported as “inactive”. For GWSDRFSMLYSFLLLLWKSP, the amyloid nucleation score was “inactive”. For GWSLGARSNYGLSTGQRGCA, the amyloid nucleation score was “inactive”. For GWWVRHSWGDGSVASVCIKM, the amyloid nucleation score was “inactive”. In the case of GYCNESTVWYDS, the amyloid nucleation score is reported as “inactive”. With GYDVRL the amyloid nucleation score was “inactive”. With GYERSDKKLDKKVL the amyloid nucleation score was “inactive”. Substance GYFTRFSVFNNMEPLSCCMC has an amyloid nucleation score of 1.38 ± 0.13. With GYGHVIYLYYCQRHDNPQVQ the amyloid nucleation score was “inactive”. For GYIRPALMARGYIVVNSANI, the amyloid nucleation score was “inactive”. GYLLRFMCCNCIPSTEIMIE showed an amyloid nucleation score of 2.73 ± 0.056. With GYPFSRLSSVV the amyloid nucleation score was “inactive”. GYRLRYNFVVFLM gave an amyloid nucleation score of 1.02 ± 0.21. In the case of GYSVYYANVSVRGLKSRDHC, the amyloid nucleation score is reported as “inactive”. GYTRVRVGCYVTVRKFWSMT gave an amyloid nucleation score of -0.14 ± 1. Work on GYVTCDLL yielded an amyloid nucleation score of 1.1 ± 0.11. In the case of GYYNSYQAELMTTACSDYVD, the amyloid nucleation score is reported as “inactive”. With HALFGYISRVDNLYSSMVSH the amyloid nucleation score was “inactive”. Substance HAVPVYD has an amyloid nucleation score of -0.394 ± 1.9. With HCDLGESFTALYSFHAVLML the amyloid nucleation score was “inactive”. For HCFTVWWEWP, the amyloid nucleation score was “inactive”. In the case of HCGYGLFNCK, the amyloid nucleation score is reported as “inactive”. In the case of HCNFMRFCLRAFSSGMHWLF, the amyloid nucleation score is reported as “inactive”. In the case of HCSCDGAIRYDILQSNHKE, the amyloid nucleation score is reported as “inactive”. For HDDSTSNNSPVSRKPLSPWS, the amyloid nucleation score was “inactive”. In the case of HDHFWLYCMCNRTSGYLESF, the amyloid nucleation score is reported as “inactive”. For HDRTVSLQYRVNTRVRLASW, the amyloid nucleation score was “inactive”. For HDTPFMCV, the amyloid nucleation score was “inactive”. In the case of HDVFSNYLITVQTFLWLSGV, the amyloid nucleation score is reported as “inactive”. In the case of HELELRFLSGWSREFLELEG, the amyloid nucleation score is reported as “inactive”. For HELFRTSHRLRCYFNPHSHI, the amyloid nucleation score was “inactive”. For HELLMVSENVRCDAKSHG, the amyloid nucleation score was “inactive”. In the case of HEMAYVVPTLVYYVYNTNSR, the amyloid nucleation score is reported as -0.076 ± 0.66. For HESKTMRKEEIMYTRWYKVL, the amyloid nucleation score was “inactive”. HFETNTVFQVFEICIVSCCY gave an amyloid nucleation score of 2.34 ± 0.067. For HFILVNIAFLVTDPHWLVRV, the amyloid nucleation score was “inactive”. With HFLFRVRRGTWK the amyloid nucleation score was 0.396 ± 0.34. In the case of HFMFGYGCTRSGQTRSPGFN, the amyloid nucleation score is reported as 1.88 ± 0.11. For HFQMRAERDESSNRPYSSFG, the amyloid nucleation score was “inactive”. In the case of HFRDAVGWGFINGCHPAGSG, the amyloid nucleation score is reported as “inactive”. With HFSSYDTDRINAVPKIWTIR the amyloid nucleation score was “inactive”. For HFVLCDHYVR, the amyloid nucleation score was “inactive”. With HFVTDDNGGICDVDNV the amyloid nucleation score was “inactive”. In the case of HFYRLAYTSISWVYRSLGAE, the amyloid nucleation score is reported as “inactive”. With HGCWKQPDQVVLLWSHRFFR the amyloid nucleation score was “inactive”. For HGCYFYYSCTFYC, the amyloid nucleation score was 3.29 ± 0.08. For HGERSDKMLDSGSPYMAPSG, the amyloid nucleation score was “inactive”. For HGFLFCGFSNYKCVQGNMTF, the amyloid nucleation score was “inactive”. In the case of HGFSMTFRLLTFFHGKNYCM, the amyloid nucleation score is reported as “inactive”. In the case of HGHSQFL, the amyloid nucleation score is reported as “inactive”. Work on HGMGYRAIFIFNLISQPRLE yielded an amyloid nucleation score of 2.52 ± 0.078. In the case of HGMTIMLGVGWYLWDGSTEG, the amyloid nucleation score is reported as 0.657 ± 0.16. In the case of HGPAMTSRSRNTSVLVLVSP, the amyloid nucleation score is reported as “inactive”. With HICIMNMLRFRCIWIPIFYM the amyloid nucleation score was “inactive”. In the case of HIFSKVSYNFEFPRNDCCRY, the amyloid nucleation score is reported as “inactive”. HISCMCLIYIV gave an amyloid nucleation score of 2.24 ± 0.088. For HIVNLFRLYYIAMWGSVCHV, the amyloid nucleation score was “inactive”. With HIVSSAMSVT the amyloid nucleation score was “inactive”. For HIWTIRVMFWRELRLLITPI, the amyloid nucleation score was “inactive”. With HKCGQDFYR the amyloid nucleation score was “inactive”. For HKCMCVY, the amyloid nucleation score was “inactive”. For HKMDWYIGLFRLMHTVAVLM, the amyloid nucleation score was “inactive”. With HKMRRAYLKECFVWDYVSCD the amyloid nucleation score was “inactive”. Substance HKWGCGL has an amyloid nucleation score of -0.539 ± 1.5. For HKYSEGSLNTFRRLRRSRFS, the amyloid nucleation score was “inactive”. In the case of HLFINL, the amyloid nucleation score is reported as “inactive”. For HLKCPRERLT, the amyloid nucleation score was “inactive”. For HLNYYGAL, the amyloid nucleation score was “inactive”. In the case of HLRLRRTFGINLH, the amyloid nucleation score is reported as “inactive”. In the case of HLSLRNNNAPDYPSGNSFWE, the amyloid nucleation score is reported as “inactive”. In the case of HLSPVNSK, the amyloid nucleation score is reported as “inactive”. In the case of HLVKEGDNTMVGGYPFQWMT, the amyloid nucleation score is reported as “inactive”. In the case of HLVRCNDRSNLRESGPS, the amyloid nucleation score is reported as “inactive”. With HLYDKSMNVGSRSARAELSM the amyloid nucleation score was “inactive”. Substance HLYLSSVENLKHLFKGVSVH has an amyloid nucleation score of -0.381 ± 0.9. For HMMTRAASVSLSVQQ, the amyloid nucleation score was “inactive”. With HMPVSIFSAFVYMTQNHAIG the amyloid nucleation score was 1.75 ± 0.062. For HMQTGDDRLMQAAYMHLEHI, the amyloid nucleation score was “inactive”. For HMSSLITVS, the amyloid nucleation score was “inactive”. For HMWLFKIQDLMLAHPITGSW, the amyloid nucleation score was “inactive”. In the case of HNILFSDLGFYRSYYNADSM, the amyloid nucleation score is reported as “inactive”. In the case of HNISAIYDRNRF, the amyloid nucleation score is reported as “inactive”. For HNKAETTPLSHCMQSSSKLL, the amyloid nucleation score was “inactive”. In the case of HNNIAFSLVVNDESVLWCFN, the amyloid nucleation score is reported as 1.97 ± 0.053. For HNRRKR, the amyloid nucleation score was -0.16 ± 0.4. For HNVAYCSGGFCDPYSNFREG, the amyloid nucleation score was “inactive”.

— the supplement of paper PMC12042874
